Test results taken from IntAct's records for PubMed 20534488.

B1: Ras-related protein Rab-5A (Homo sapiens), P20339-1 (parent)
chain: MASRGATRPNGPNTGNKICQFKLVLLGESAVGKSSLVLRFVKGQFHEFQESTIGAAFLTQTVCLDDTTVKFEIWDTAGQERYHSLAPMYYRGAQAAIVVYDITNEESFARAKNWVKELQRQASPNIVIALSGNKADLANKRAVDFQEAQSYADDNSLLFMETSAKTSMNVNEIFMAIAKKLPKNEPQNPGANSARGRGVDLTEPTQPTRNQCCSN
B2: Ras-related protein Rab-5C (Homo sapiens), P51148 (parent)
chain: MAGRGGAARPNGPAAGNKICQFKLVLLGESAVGKSSLVLRFVKGQFHEYQESTIGAAFLTQTVCLDDTTVKFEIWDTAGQERYHSLAPMYYRGAQAAIVVYDITNTDTFARAKNWVKELQRQASPNIVIALAGNKADLASKRAVEFQEAQAYADDNSLLFMETSAKTAMNVNEIFMAIAKKLPKNEPQNATGAPGRNRGVDLQENNPASRSQCCSN
partner: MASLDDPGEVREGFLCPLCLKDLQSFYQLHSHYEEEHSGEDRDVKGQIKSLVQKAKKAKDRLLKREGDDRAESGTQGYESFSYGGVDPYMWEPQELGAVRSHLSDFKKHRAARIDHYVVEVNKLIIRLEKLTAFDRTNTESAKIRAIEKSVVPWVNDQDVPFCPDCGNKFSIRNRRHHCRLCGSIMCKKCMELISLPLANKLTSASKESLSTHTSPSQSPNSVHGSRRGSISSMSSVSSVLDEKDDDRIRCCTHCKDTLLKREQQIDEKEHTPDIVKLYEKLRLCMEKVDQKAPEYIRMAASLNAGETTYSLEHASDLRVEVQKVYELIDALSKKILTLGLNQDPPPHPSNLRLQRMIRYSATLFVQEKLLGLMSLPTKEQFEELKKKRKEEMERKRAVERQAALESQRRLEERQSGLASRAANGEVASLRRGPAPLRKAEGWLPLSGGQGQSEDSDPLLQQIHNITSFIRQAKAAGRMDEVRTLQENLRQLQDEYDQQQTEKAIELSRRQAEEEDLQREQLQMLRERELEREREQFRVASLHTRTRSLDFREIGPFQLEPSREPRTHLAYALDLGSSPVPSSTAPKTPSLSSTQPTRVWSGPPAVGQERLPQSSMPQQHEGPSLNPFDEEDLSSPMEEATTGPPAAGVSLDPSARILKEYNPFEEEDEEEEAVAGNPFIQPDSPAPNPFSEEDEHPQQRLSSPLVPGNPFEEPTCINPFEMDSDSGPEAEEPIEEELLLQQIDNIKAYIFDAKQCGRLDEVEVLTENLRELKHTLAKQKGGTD
B3: Ras-related protein Rab-5C (Homo sapiens), P51148 (parent)
chain: B2 chain

Variants of: B1
Conditions: with eea1_human EEA1, Q15075
Sequence of eea1_human EEA1, Q15075 (Q15075 whole entry): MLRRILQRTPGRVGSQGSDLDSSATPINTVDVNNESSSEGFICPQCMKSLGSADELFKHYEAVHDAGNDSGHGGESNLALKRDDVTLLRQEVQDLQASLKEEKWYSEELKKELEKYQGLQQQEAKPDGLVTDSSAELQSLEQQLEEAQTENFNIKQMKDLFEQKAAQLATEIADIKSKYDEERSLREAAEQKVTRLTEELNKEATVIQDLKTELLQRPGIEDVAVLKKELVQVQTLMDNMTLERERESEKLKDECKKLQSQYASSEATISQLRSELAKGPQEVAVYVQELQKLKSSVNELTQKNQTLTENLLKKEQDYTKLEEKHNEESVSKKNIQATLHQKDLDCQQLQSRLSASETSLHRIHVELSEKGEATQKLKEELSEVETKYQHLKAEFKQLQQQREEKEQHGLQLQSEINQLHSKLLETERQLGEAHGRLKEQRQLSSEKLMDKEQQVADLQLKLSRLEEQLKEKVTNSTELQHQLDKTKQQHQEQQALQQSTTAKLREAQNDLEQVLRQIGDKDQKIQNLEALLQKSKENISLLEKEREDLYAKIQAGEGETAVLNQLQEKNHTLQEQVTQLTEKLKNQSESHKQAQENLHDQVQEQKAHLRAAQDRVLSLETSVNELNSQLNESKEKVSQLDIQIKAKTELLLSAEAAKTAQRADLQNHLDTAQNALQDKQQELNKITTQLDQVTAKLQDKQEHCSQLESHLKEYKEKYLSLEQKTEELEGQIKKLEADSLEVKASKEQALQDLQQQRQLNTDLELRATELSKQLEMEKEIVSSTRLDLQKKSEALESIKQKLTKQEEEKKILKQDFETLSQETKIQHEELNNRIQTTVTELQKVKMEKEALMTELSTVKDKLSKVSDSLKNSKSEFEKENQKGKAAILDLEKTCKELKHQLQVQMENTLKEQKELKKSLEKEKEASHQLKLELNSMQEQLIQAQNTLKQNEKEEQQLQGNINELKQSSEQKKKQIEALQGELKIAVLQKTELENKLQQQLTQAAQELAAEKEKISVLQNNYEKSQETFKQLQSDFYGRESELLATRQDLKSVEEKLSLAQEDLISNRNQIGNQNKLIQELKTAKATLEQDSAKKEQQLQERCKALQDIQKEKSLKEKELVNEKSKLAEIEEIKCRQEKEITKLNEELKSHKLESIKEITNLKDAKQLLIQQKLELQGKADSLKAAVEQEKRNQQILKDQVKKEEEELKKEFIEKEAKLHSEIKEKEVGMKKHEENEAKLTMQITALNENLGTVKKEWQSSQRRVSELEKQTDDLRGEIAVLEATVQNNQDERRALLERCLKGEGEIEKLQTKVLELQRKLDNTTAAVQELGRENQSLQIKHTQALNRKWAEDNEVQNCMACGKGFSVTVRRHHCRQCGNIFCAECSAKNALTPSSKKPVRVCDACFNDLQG

| effect of a mutation on the interaction | Variant |
| --- | --- |
| with no effect | MASRGATRPNGPNTGNKICQFKLVLLGESAVGKSSLVLRFVKGQFHEFQESTIGAAFLTQTVCLDDTTVKFEIWDTAGLERYHSLAPMYYRGAQAAIVVYDITNEESFARAKNWVKELQRQASPNIVIALSGNKADLANKRAVDFQEAQSYADDNSLLFMETSAKTSMNVNEIFMAIAKKLPKNEPQNPGANSARGRGVDLTEPTQPTRNQCCSN [Q79L] |

Variants of: B2
Conditions: with rbns5_human RBSN

| Variant | effect of a mutation on the interaction |
| --- | --- |
| MAGRGGAARPNGPAAGNKICQFKLVLLGESAVGKSSLVLRFVKGQFHEYQEPTIGAAFLTQTVCLDDTTVKFEIWDTAGQERYHSLAPMYYRGAQAAIVVYDITNTDTFARAKNWVKELQRQASPNIVIALAGNKADLASKRAVEFQEAQAYADDNSLLFMETSAKTAMNVNEIFMAIAKKLPKNEPQNATGAPGRNRGVDLQENNPASRSQCCSN [S52P] | decreasing interaction strength |
| MAGRGGAARPNGPAAGNKICQFKLVLLGESAVGKSSLVLRFVEGQFHEYQESTIGAAFLTQTVCLDDTTVKFEIWDTAGQERYHSLAPMYYRGAQAAIVVYDITNTDTFARAKNWVKELQRQASPNIVIALAGNKADLASKRAVEFQEAQAYADDNSLLFMETSAKTAMNVNEIFMAIAKKLPKNEPQNATGAPGRNRGVDLQENNPASRSQCCSN [K43E] | disrupting interaction strength |
| MAGRGGAARPNGPAAGNKICQFKLVLLGESAVGKSSLVLRFVKGQFHEYQNSTIGAAFLTQTVCLDDTTVKFEIWDTAGQERYHSLAPMYYRGAQAAIVVYDITNTDTFARAKNWVKELQRQASPNIVIALAGNKADLASKRAVEFQEAQAYADDNSLLFMETSAKTAMNVNEIFMAIAKKLPKNEPQNATGAPGRNRGVDLQENNPASRSQCCSN [E51N] | decreasing interaction strength |
| MAGRGGAARPNGPAAGNKICQFKLVLLGESAVGKSSLVLRFVKGQFHEYQESTIGADFLTQTVCLDDTTVKFEIWDTAGQERYHSLAPMYYRGAQAAIVVYDITNTDTFARAKNWVKELQRQASPNIVIALAGNKADLASKRAVEFQEAQAYADDNSLLFMETSAKTAMNVNEIFMAIAKKLPKNEPQNATGAPGRNRGVDLQENNPASRSQCCSN [A57D] | disrupting interaction strength |
| MAGRGGAARPNGPAAGNKICQFKLVLLGESAVGKSSLVLRFVKGQFHEYQESTIGASFLTQTVCLDDTTVKFEIWDTAGQERYHSLAPMYYRGAQAAIVVYDITNTDTFARAKNWVKELQRQASPNIVIALAGNKADLASKRAVEFQEAQAYADDNSLLFMETSAKTAMNVNEIFMAIAKKLPKNEPQNATGAPGRNRGVDLQENNPASRSQCCSN [A57S] | decreasing interaction strength |
| MAGRGGAARPNGPAAGNKICQFKLVLLGESAVGKSSLVLRFVKGQFHPYQESTIGAAFLTQTVCLDDTTVKFEIWDTAGQERYHSLAPMYYRGAQAAIVVYDITNTDTFARAKNWVKELQRQASPNIVIALAGNKADLASKRAVEFQEAQAYADDNSLLFMETSAKTAMNVNEIFMAIAKKLPKNEPQNATGAPGRNRGVDLQENNPASRSQCCSN [E48P] | with no effect |
| MAGRGGAARPNGPAAGNKICQFKLVLLGESAVGKSSLVLRFVKGQFHENQESTIGAAFLTQTVCLDDTTVKFEIWDTAGQERYHSLAPMYYRGAQAAIVVYDITNTDTFARAKNWVKELQRQASPNIVIALAGNKADLASKRAVEFQEAQAYADDNSLLFMETSAKTAMNVNEIFMAIAKKLPKNEPQNATGAPGRNRGVDLQENNPASRSQCCSN [Y49N] | with no effect |
| MAGRGGAARPNGPAAGNKICQFKLVLLGESAVGKSSLVLRFVKGQFHEYIESTIGAAFLTQTVCLDDTTVKFEIWDTAGQERYHSLAPMYYRGAQAAIVVYDITNTDTFARAKNWVKELQRQASPNIVIALAGNKADLASKRAVEFQEAQAYADDNSLLFMETSAKTAMNVNEIFMAIAKKLPKNEPQNATGAPGRNRGVDLQENNPASRSQCCSN [Q50I] | with no effect |

Other lines, results leading:

| effect of a mutation on the interaction | Variant |
| --- | --- |
| decreasing interaction strength | MAGRGGAARPNGPAAGNKICQFKLVLLGESAVGKSSLVLRFVKGQFHEYQESTIGAAFLTQTVCLDDTTVKFEIWDTAGQERYRSLAPMYYRGAQAAIVVYDITNTDTFARAKNWVKELQRQASPNIVIALAGNKADLASKRAVEFQEAQAYADDNSLLFMETSAKTAMNVNEIFMAIAKKLPKNEPQNATGAPGRNRGVDLQENNPASRSQCCSN [H84R] |
| with no effect | MAGRGGAARPNGPAAGNKICQFKLVLLGESAVGKSSLVLRFVKGQFHEYQESTIGAAFLTKTVCLDDTTVKFEIWDTAGQERYHSLAPMYYRGAQAAIVVYDITNTDTFARAKNWVKELQRQASPNIVIALAGNKADLASKRAVEFQEAQAYADDNSLLFMETSAKTAMNVNEIFMAIAKKLPKNEPQNATGAPGRNRGVDLQENNPASRSQCCSN [Q61K] |
| with no effect | MAGRGGAARPNGPAAGNKICQFKLVLLGESAVGKSSLVLRFVKGQFHEYQESTIGAAFLTQTVCLDDTTVKFLIWDTAGQERYHSLAPMYYRGAQAAIVVYDITNTDTFARAKNWVKELQRQASPNIVIALAGNKADLASKRAVEFQEAQAYADDNSLLFMETSAKTAMNVNEIFMAIAKKLPKNEPQNATGAPGRNRGVDLQENNPASRSQCCSN [E73L] |
| with no effect | MAGRGGAARPNGPAAGNKICQFKLVLLGESAVGKSSLVLRFVKGQFHEYQESTIGAAFLTQTVCLDDTTVKFEIWDTAGQERFHSLAPMYYRGAQAAIVVYDITNTDTFARAKNWVKELQRQASPNIVIALAGNKADLASKRAVEFQEAQAYADDNSLLFMETSAKTAMNVNEIFMAIAKKLPKNEPQNATGAPGRNRGVDLQENNPASRSQCCSN [Y83F] |
| increasing interaction strength | MAGRGGAARPNGPAAGNKICQFKLVLLGESAVGKSSLVLRFVKGQFHEYQESTIGAAFLTQTVCLDDTTVKFEIWDTAGQERYHSLAPMYYRGSQAAIVVYDITNTDTFARAKNWVKELQRQASPNIVIALAGNKADLASKRAVEFQEAQAYADDNSLLFMETSAKTAMNVNEIFMAIAKKLPKNEPQNATGAPGRNRGVDLQENNPASRSQCCSN [A94S] |
| with no effect | MAGRGGAARPNGPAAGNKICQFKLVLLGESAVGKSSLVLRFVKGQFHEYQESTIGAAFMTQTVCLDDTTVKFEIWDTAGQERYHSLAPMYYRGAQAAIVVYDITNTDTFARAKNWVKELQRQASPNIVIALAGNKADLASKRAVEFQEAQAYADDNSLLFMETSAKTAMNVNEIFMAIAKKLPKNEPQNATGAPGRNRGVDLQENNPASRSQCCSN [L59M] |

Variants of: B3
Conditions: with eea1_human EEA1, Q15075

| Variant | effect of a mutation on the interaction |
| --- | --- |
| MAGRGGAARPNGPAAGNKICQFKLVLLGESAVGKSSLVLRFVKGQFHEYQESTIGADFLTQTVCLDDTTVKFEIWDTAGQERYHSLAPMYYRGAQAAIVVYDITNTDTFARAKNWVKELQRQASPNIVIALAGNKADLASKRAVEFQEAQAYADDNSLLFMETSAKTAMNVNEIFMAIAKKLPKNEPQNATGAPGRNRGVDLQENNPASRSQCCSN [A57D] | decreasing interaction strength |
| MAGRGGAARPNGPAAGNKICQFKLVLLGESAVGKSSLVLRFVKGQFHEYQESTIGASFLTQTVCLDDTTVKFEIWDTAGQERYHSLAPMYYRGAQAAIVVYDITNTDTFARAKNWVKELQRQASPNIVIALAGNKADLASKRAVEFQEAQAYADDNSLLFMETSAKTAMNVNEIFMAIAKKLPKNEPQNATGAPGRNRGVDLQENNPASRSQCCSN [A57S] | disrupting interaction strength |
| MAGRGGAARPNGPAAGNKICQFKLVLLGESAVGKSSLVLRFVKGQFHEYQESTIGAEFLTQTVCLDDTTVKFEIWDTAGQERYHSLAPMYYRGAQAAIVVYDITNTDTFARAKNWVKELQRQASPNIVIALAGNKADLASKRAVEFQEAQAYADDNSLLFMETSAKTAMNVNEIFMAIAKKLPKNEPQNATGAPGRNRGVDLQENNPASRSQCCSN [A57E] | disrupting interaction strength |
| MAGRGGAARPNGPAAGNKICQFKLVLLGESAVGKSSLVLRFVKGQFHEYQESTIQAAFLTQTVCLDDTTVKFEIWDTAGQERYHSLAPMYYRGAQAAIVVYDITNTDTFARAKNWVKELQRQASPNIVIALAGNKADLASKRAVEFQEAQAYADDNSLLFMETSAKTAMNVNEIFMAIAKKLPKNEPQNATGAPGRNRGVDLQENNPASRSQCCSN [G55Q] | disrupting interaction strength |

Further lines, results first:

| effect of a mutation on the interaction | Variant |
| --- | --- |
| disrupting interaction strength | MAGRGGAARPNGPAAGNKICQFKLVLLGESAVGKSSLVLRFVKGQFHEYQESTIGAAFLTQTVCLDDTTVKFEIWDTAGQERYHSLAPSYYRGAQAAIVVYDITNTDTFARAKNWVKELQRQASPNIVIALAGNKADLASKRAVEFQEAQAYADDNSLLFMETSAKTAMNVNEIFMAIAKKLPKNEPQNATGAPGRNRGVDLQENNPASRSQCCSN [M89S] |
| disrupting interaction strength | MAGRGGAARPNGPAAGNKICQFKLVLLGESAVGKSSLVLRFVKGQFHEYQESTIGAAFLTQTVCLDDTTVKFEIWDTAGQERYHSLAPAYYRGAQAAIVVYDITNTDTFARAKNWVKELQRQASPNIVIALAGNKADLASKRAVEFQEAQAYADDNSLLFMETSAKTAMNVNEIFMAIAKKLPKNEPQNATGAPGRNRGVDLQENNPASRSQCCSN [M89A] |
